From patent publication US20070244297A1
Read-outs that look alike come from different tables or passages of the source.

Legend:
[1] = molecular target: T1, recombinant human neuronal calcium channel α1B-1α2bβ1-2 (human), Q00975
[2] = molecular target: human neuronal calcium channel α1B-1 subunit (expressed alone) (human), Q00975
[3] = molecular target: T2, recombinant human neuronal calcium channel α1B-1α2b (human)
[4] = molecular target: T2, recombinant human neuronal calcium …; assay: 125I-ω-CgTx GVIA saturation binding to transiently transfected HEK293 cells
[5] = molecular target: T1, recombinant human neuronal calcium …; assay: as above
[6] = molecular target: recombinant human neuronal calcium channel α1B-1α2bβ1-3 (human); assay: as above
[7] = molecular target: recombinant human neuronal calcium channel α1B-1β1-2 (human), Q00975; assay: as above
[8] = molecular target: recombinant human neuronal calcium channel α1B-1β1-3 (human), Q00975; assay: as above
[9] = molecular target: recombinant human neuronal calcium channel α1B-2α2bβ1-2 (human); assay: as above
[10] = molecular target: recombinant human neuronal calcium channel α1B-2α2bβ1-3 (human), Q00975; assay: as above
[11] = molecular target: recombinant human neuronal calcium channel α1B-2β1-2 (human), Q00975; assay: as above
[12] = molecular target: recombinant human neuronal calcium channel α1B-2β1-3 (human), Q00975; assay: as above

Question: Which results are given for CKSPGSSCSPTSYNCCRSCNPYTKRCYG (modifications not checked) [ω-CgTx, P01522 46-73]?
Answer: Kd [1]: 0.0546 nM; binding capacity (Bmax) (sites per cell) [1]: 28700

Question: What does the source list for CKSPGSSCSPTSYNCCRSCNPYTKRCYG (modifications not checked) [125I-ω-CgTx GVIA, P01522 46-73]?
Answer: Bmax [2]: 757 sites/cell; Kd [2]: 0.0317 nM; Bmax [3]: 2260 sites/cell; Kd [3]: 0.0846 nM; fold change of binding capacity against α1B-1 alone [4]: 3 fold; Bmax [5]: 45300 sites/cell; Kd [5]: 0.0549 nM; fold change of binding sites per cell against α1B-2α2bβ1-2 [5]: 2.5 fold; fold change of surface receptor density against α1B-1β1-2 [5]: 8 fold; Bmax [6]: 91000 sites/cell; Kd [6]: 0.0532 nM; fold change of binding capacity against α1B-1α2bβ1-2 [6]: 2 fold; fold change of binding sites per cell against α1B-2α2bβ1-3 [6]: 2.5 fold; fold change of surface receptor density against α1B-1β1-3 [6]: 10 fold; Bmax [7]: 5760 sites/cell; Kd [7]: 0.0179 nM; fold change of surface binding against α1B-1 alone [7]: 8 fold; Bmax [8]: 8730 sites/cell; Kd [8]: 0.0179 nM; fold change of surface binding against α1B-1 alone [8]: 10 fold; Bmax [9]: 19400 sites/cell; Kd [9]: 0.053 nM; fold change of surface receptor density against α1B-2β1-2 [9]: 9 fold; Bmax [10]: 37700 sites/cell; Kd [10]: 0.0443 nM; fold change of binding capacity against α1B-2α2bβ1-2 [10]: 2 fold; fold change of surface receptor density against α1B-2β1-3 [10]: 13 fold; Bmax [11]: 2130 sites/cell; Kd [11]: 0.0164 nM; Bmax [12]: 2940 sites/cell; Kd [12]: 0.0222 nM
